The text below walks through data of patent US20250179138.

The data set has as its system ACP11 (human p40/murine p35 IL-12 fusion protein).

Sequence of active MMP9 (Sigma catalog #SAE0078-50 or Enzo catalog BML-SE360) (chain, as listed by the source): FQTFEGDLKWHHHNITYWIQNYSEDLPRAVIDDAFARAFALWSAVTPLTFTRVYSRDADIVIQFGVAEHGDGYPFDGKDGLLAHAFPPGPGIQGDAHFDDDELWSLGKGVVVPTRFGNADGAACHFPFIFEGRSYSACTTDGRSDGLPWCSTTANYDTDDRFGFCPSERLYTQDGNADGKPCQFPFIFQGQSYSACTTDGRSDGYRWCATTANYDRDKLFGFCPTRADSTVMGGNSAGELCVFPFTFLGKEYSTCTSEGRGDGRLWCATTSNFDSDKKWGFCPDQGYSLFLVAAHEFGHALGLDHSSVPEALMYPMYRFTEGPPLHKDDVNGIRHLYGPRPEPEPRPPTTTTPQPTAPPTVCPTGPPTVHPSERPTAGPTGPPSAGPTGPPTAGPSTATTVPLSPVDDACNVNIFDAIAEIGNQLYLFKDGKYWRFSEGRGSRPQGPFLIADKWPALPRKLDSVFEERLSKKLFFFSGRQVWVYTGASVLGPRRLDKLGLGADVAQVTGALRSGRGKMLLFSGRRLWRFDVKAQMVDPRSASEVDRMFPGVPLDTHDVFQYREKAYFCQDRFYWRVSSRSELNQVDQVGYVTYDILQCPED

Regarding “active MMP9 (Sigma catalog #SAE0078-50 or Enzo catalog BML-SE360)”, the “protein cleavage assay, extent of cleavage monitored by SDS PAGE” value is reported as “the ACP11 fusion protein was cleaved by MMP9 protease”.
